This note sets out measurements from US20260234232A1 (QUAERITE BIOPHARM RESEARCH BEIJING, published 2026).

Experiment [1] has as its target T1, human VEGFA165 (human, UniProt P15692-4 27-191).
T1 construct: Bought protein from two suppliers, treated as one molecule; the supplier is named under assay; also called antigen VEGFA
In words: ELISA, coated human VEGFA165, anti-His detection. The protocol:
Antigen human VEGFA165 (label-free, purchased from Sino Biological, Cat. No.: HPLC-10008-HNAH, hereinafter referred to as VEGFA) was diluted with ELISA coating buffer to a final concentration of 0.3 μg/mL and added to a microplate at 100 μL/well for coating at 4° C. overnight. […] The solution used for antibody dilution was PBS containing 0.1% Tween-20 (pH 7.4), i.e., PBST. After being incubated at 37° C. for 1 h, the microplate was washed 3 times with PBST, and a dilution of His-Tag murine monoclonal antibody (purchased from Proteintech, Cat. No.: 66005-1-Ig) was added. The plate was further incubated at 37° C. for 1 h and washed again. Subsequently, a dilution of HRP-labeled goat anti-mouse IgG antibody (HRP-conjugated Affinipure Goat Anti-Mouse IgG (H+L), purchased from Proteintech, Cat. No.: SA00001-1) was added, and the plate was incubated at room temperature for 45 min. After the plate was washed, 100 μL of TMB (purchased from Tiangen Biotech, Cat. No.: PA107-01) was added to each well for color development at 37° C. for 15 min, followed by the addition of 50 μL of stopping solution. The absorbance at 450 nm (OD450) was measured using a microplate reader.

Experiment [2] addresses T1, human VEGFA165. The experiment can be described thus: competitive ELISA, coated VEGFA, competitor VEGFR2-ECD-Fc 1 nM. Background: An ELISA detects its analyte on a solid surface through an enzyme-linked reagent.

T1 sequence (P15692 other isoform, or with tags, fused parts or gaps limits assumed): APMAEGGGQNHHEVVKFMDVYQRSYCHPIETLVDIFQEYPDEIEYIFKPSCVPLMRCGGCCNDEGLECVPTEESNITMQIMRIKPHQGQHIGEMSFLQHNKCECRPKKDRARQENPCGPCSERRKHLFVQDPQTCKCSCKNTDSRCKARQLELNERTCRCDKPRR

B1: 2V1-EAAAK-Rigid (VHH)
chain: QLQLVESGGGSVQPGGSLRLSCEVSGRTFSSYTMGWFRQAPGKEREFVVAISKGGYKYDSVSLEARFTISKDNTKNTVYLQMNSLKPEDTAVYYCAATRAYGSSRLRLADTYEYWGQGTQVTVSSLAEAAAKEAAAKEAAAKEAAAKEAAAKAAAQLQLVESGGGSVQPGGSLRLSCEVSGRTFSSYTMGWFRQAPGKEREFVVAISKGGYKYDSVSLEARFTISKDNTKNTVYLQMNSLKPEDTAVYYCAATRAYGSSRLRLADTYEYWGQGTQVTVSS
notes: Tandem bivalent nanobody
For orientation: EC50 means the midpoint of the concentration-response curve. Read a high EC50 as a need for much substance. B1 registered an EC50 with human VEGFA165 [1] of 0.22 nM.

B2: 2V1-30GS (VHH)
chain: QLQLVESGGGSVQPGGSLRLSCEVSGRTFSSYTMGWFRQAPGKEREFVVAISKGGYKYDSVSLEARFTISKDNTKNTVYLQMNSLKPEDTAVYYCAATRAYGSSRLRLADTYEYWGQGTQVTVSSGGGGSGGGSGGGGSGGGSGGGSGGGSGGGSQLQLVESGGGSVQPGGSLRLSCEVSGRTFSSYTMGWFRQAPGKEREFVVAISKGGYKYDSVSLEARFTISKDNTKNTVYLQMNSLKPEDTAVYYCAATRAYGSSRLRLADTYEYWGQGTQVTVSS
notes: Tandem bivalent nanobody
On to B2, for which the EC50 with human VEGFA165 [1] amounted to 0.22 nM.

B3: 2V1-(AP)10 (VHH)
chain: QLQLVESGGGSVQPGGSLRLSCEVSGRTFSSYTMGWFRQAPGKEREFVVAISKGGYKYDSVSLEARFTISKDNTKNTVYLQMNSLKPEDTAVYYCAATRAYGSSRLRLADTYEYWGQGTQVTVSSPDSAPAPAPAPAPAPAPAPAPAPDGSSQLQLVESGGGSVQPGGSLRLSCEVSGRTFSSYTMGWFRQAPGKEREFVVAISKGGYKYDSVSLEARFTISKDNTKNTVYLQMNSLKPEDTAVYYCAATRAYGSSRLRLADTYEYWGQGTQVTVSS
notes: Tandem bivalent nanobody
Turning to B3, in the experiment with human VEGFA165 [1], the EC50 was 0.18 nM.

B4: 2V15-9S (VHH)
chain: QLQLVESGGGSVQPGGSLRLSCEVSGRTFASYTMGWFRQAPGKEREFVVAISKGGYKYDSVSLEARFTISKDNTKNTVYLQMNSLKPEDTAVYYCAGTRAYGSSRLRLAETYEYWGQGTQVTVSSSSSSSSSSSQLQLVESGGGSVQPGGSLRLSCEVSGRTFASYTMGWFRQAPGKEREFVVAISKGGYKYDSVSLEARFTISKDNTKNTVYLQMNSLKPEDTAVYYCAGTRAYGSSRLRLAETYEYWGQGTQVTVSS
notes: Tandem bivalent nanobody
The IC50 is the point on the concentration scale where inhibition reaches its midpoint. A high value points to weaker potency in that assay. In the experiment with human VEGFA165 [1], B4 registered an EC50 of 0.21 nM. Also, in the experiment with human VEGFA165 [2], the IC50 worked out at 3.53 nM and the “Maximum inhibition rate (%)” value turned out to be 88.8%.

B5: 2V1-(AP)5 (VHH)
chain: QLQLVESGGGSVQPGGSLRLSCEVSGRTFSSYTMGWFRQAPGKEREFVVAISKGGYKYDSVSLEARFTISKDNTKNTVYLQMNSLKPEDTAVYYCAATRAYGSSRLRLADTYEYWGQGTQVTVSSPDSAPAPAPAPAPDGSSQLQLVESGGGSVQPGGSLRLSCEVSGRTFSSYTMGWFRQAPGKEREFVVAISKGGYKYDSVSLEARFTISKDNTKNTVYLQMNSLKPEDTAVYYCAATRAYGSSRLRLADTYEYWGQGTQVTVSS
notes: Tandem bivalent nanobody
As for B5, the EC50 with human VEGFA165 [1] came out at 0.19 nM.

B6: 2V15-25GS (VHH)
chain: QLQLVESGGGSVQPGGSLRLSCEVSGRTFASYTMGWFRQAPGKEREFVVAISKGGYKYDSVSLEARFTISKDNTKNTVYLQMNSLKPEDTAVYYCAGTRAYGSSRLRLAETYEYWGQGTQVTVSSGGGGSGGGSGGGSGGGSGGGSGGGSQLQLVESGGGSVQPGGSLRLSCEVSGRTFASYTMGWFRQAPGKEREFVVAISKGGYKYDSVSLEARFTISKDNTKNTVYLQMNSLKPEDTAVYYCAGTRAYGSSRLRLAETYEYWGQGTQVTVSS
notes: Tandem bivalent nanobody
As for B6, it took 0.24 nM to reach a half-maximal effect with human VEGFA165 [1] (EC50). Further, in the experiment with human VEGFA165 [2], the IC50 stood at 1.66 nM and the “Maximum inhibition rate (%)” value was determined as 94.5%.

B7: 2V15-20GS (VHH)
chain: QLQLVESGGGSVQPGGSLRLSCEVSGRTFASYTMGWFRQAPGKEREFVVAISKGGYKYDSVSLEARFTISKDNTKNTVYLQMNSLKPEDTAVYYCAGTRAYGSSRLRLAETYEYWGQGTQVTVSSGGGGSGGGSGGGSGGGSGGSQLQLVESGGGSVQPGGSLRLSCEVSGRTFASYTMGWFRQAPGKEREFVVAISKGGYKYDSVSLEARFTISKDNTKNTVYLQMNSLKPEDTAVYYCAGTRAYGSSRLRLAETYEYWGQGTQVTVSS
notes: Tandem bivalent nanobody
With B7, in the experiment with human VEGFA165 [1], the EC50 stood at 0.28 nM. Further, in the experiment with human VEGFA165 [2], the IC50 came out at 2.03 nM and the “Maximum inhibition rate (%)” value was 94.2%.

B8: 2V1-6A (VHH)
chain: QLQLVESGGGSVQPGGSLRLSCEVSGRTFSSYTMGWFRQAPGKEREFVVAISKGGYKYDSVSLEARFTISKDNTKNTVYLQMNSLKPEDTAVYYCAATRAYGSSRLRLADTYEYWGQGTQVTVSSAAAAAAQLQLVESGGGSVQPGGSLRLSCEVSGRTFSSYTMGWFRQAPGKEREFVVAISKGGYKYDSVSLEARFTISKDNTKNTVYLQMNSLKPEDTAVYYCAATRAYGSSRLRLADTYEYWGQGTQVTVSS
notes: Tandem bivalent nanobody
As for B8, in the experiment with human VEGFA165 [1], the EC50 came out at 0.33 nM.

B9: 2V1-39GS (VHH)
chain: QLQLVESGGGSVQPGGSLRLSCEVSGRTFSSYTMGWFRQAPGKEREFVVAISKGGYKYDSVSLEARFTISKDNTKNTVYLQMNSLKPEDTAVYYCAATRAYGSSRLRLADTYEYWGQGTQVTVSSGGGGSGGGSGGGGSGGGGSGGGGSGGGGSGGGGSGGGGSQLQLVESGGGSVQPGGSLRLSCEVSGRTFSSYTMGWFRQAPGKEREFVVAISKGGYKYDSVSLEARFTISKDNTKNTVYLQMNSLKPEDTAVYYCAATRAYGSSRLRLADTYEYWGQGTQVTVSS
notes: Tandem bivalent nanobody
With B9, in the experiment with human VEGFA165 [1], the EC50 came out at 0.18 nM.

B10: 2V15-20S (VHH)
chain: QLQLVESGGGSVQPGGSLRLSCEVSGRTFASYTMGWFRQAPGKEREFVVAISKGGYKYDSVSLEARFTISKDNTKNTVYLQMNSLKPEDTAVYYCAGTRAYGSSRLRLAETYEYWGQGTQVTVSSSSSSSSSSSSSSSSSSSSSSQLQLVESGGGSVQPGGSLRLSCEVSGRTFASYTMGWFRQAPGKEREFVVAISKGGYKYDSVSLEARFTISKDNTKNTVYLQMNSLKPEDTAVYYCAGTRAYGSSRLRLAETYEYWGQGTQVTVSS
notes: Tandem bivalent nanobody
As to B10, in the experiment with human VEGFA165 [1], the EC50 was 0.43 nM. Also, in the experiment with human VEGFA165 [2], the IC50 came out at 4.38 nM and the “Maximum inhibition rate (%)” value came to 89.8%.

B11: 2V1-EAAAK-Turn (VHH)
chain: QLQLVESGGGSVQPGGSLRLSCEVSGRTFSSYTMGWFRQAPGKEREFVVAISKGGYKYDSVSLEARFTISKDNTKNTVYLQMNSLKPEDTAVYYCAATRAYGSSRLRLADTYEYWGQGTQVTVSSPDSEAAAKEAAAKEAAAKEAAAKEAAAKPDGSSQLQLVESGGGSVQPGGSLRLSCEVSGRTFSSYTMGWFRQAPGKEREFVVAISKGGYKYDSVSLEARFTISKDNTKNTVYLQMNSLKPEDTAVYYCAATRAYGSSRLRLADTYEYWGQGTQVTVSS
notes: Tandem bivalent nanobody
In turn, B11 showed an EC50 with human VEGFA165 [1] of 0.31 nM. In the experiment with human VEGFA165 [2], the IC50 was 1.56 nM and the “Maximum inhibition rate (%)” value was 96.8%.

B12: 2V15-EAAAK-Turn (VHH)
chain: QLQLVESGGGSVQPGGSLRLSCEVSGRTFASYTMGWFRQAPGKEREFVVAISKGGYKYDSVSLEARFTISKDNTKNTVYLQMNSLKPEDTAVYYCAGTRAYGSSRLRLAETYEYWGQGTQVTVSSPDSEAAAKEAAAKEAAAKEAAAKEAAAKPDGSSQLQLVESGGGSVQPGGSLRLSCEVSGRTFASYTMGWFRQAPGKEREFVVAISKGGYKYDSVSLEARFTISKDNTKNTVYLQMNSLKPEDTAVYYCAGTRAYGSSRLRLAETYEYWGQGTQVTVSS
notes: Tandem bivalent nanobody
For B12, the EC50 with human VEGFA165 [1] was determined as 0.33 nM. Further, in the experiment with human VEGFA165 [2], the IC50 came out at 1.76 nM and the “Maximum inhibition rate (%)” value was determined as 96.7%.

B13: 2V1-3A (VHH)
chain: QLQLVESGGGSVQPGGSLRLSCEVSGRTFSSYTMGWFRQAPGKEREFVVAISKGGYKYDSVSLEARFTISKDNTKNTVYLQMNSLKPEDTAVYYCAATRAYGSSRLRLADTYEYWGQGTQVTVSSAAAQLQLVESGGGSVQPGGSLRLSCEVSGRTFSSYTMGWFRQAPGKEREFVVAISKGGYKYDSVSLEARFTISKDNTKNTVYLQMNSLKPEDTAVYYCAATRAYGSSRLRLADTYEYWGQGTQVTVSS
notes: Tandem bivalent nanobody
On to B13, for which the EC50 in the experiment with human VEGFA165 [1] came out at 0.25 nM.

B14: 2V1-3GS (VHH)
chain: QLQLVESGGGSVQPGGSLRLSCEVSGRTFSSYTMGWFRQAPGKEREFVVAISKGGYKYDSVSLEARFTISKDNTKNTVYLQMNSLKPEDTAVYYCAATRAYGSSRLRLADTYEYWGQGTQVTVSSGGSQLQLVESGGGSVQPGGSLRLSCEVSGRTFSSYTMGWFRQAPGKEREFVVAISKGGYKYDSVSLEARFTISKDNTKNTVYLQMNSLKPEDTAVYYCAATRAYGSSRLRLADTYEYWGQGTQVTVSS
notes: Tandem bivalent nanobody
As to B14, in the experiment with human VEGFA165 [2], the IC50 turned out to be 3 nM and the “Maximum inhibition rate (%)” value is 91%.

B15: 2V1-NL (VHH)
chain: QLQLVESGGGSVQPGGSLRLSCEVSGRTFSSYTMGWFRQAPGKEREFVVAISKGGYKYDSVSLEARFTISKDNTKNTVYLQMNSLKPEDTAVYYCAATRAYGSSRLRLADTYEYWGQGTQVTVSSQLQLVESGGGSVQPGGSLRLSCEVSGRTFSSYTMGWFRQAPGKEREFVVAISKGGYKYDSVSLEARFTISKDNTKNTVYLQMNSLKPEDTAVYYCAATRAYGSSRLRLADTYEYWGQGTQVTVSS
notes: Tandem bivalent nanobody; also called bivalent V1 without a linker
In turn, B15 had an EC50 with human VEGFA165 [1] of 0.29 nM. In other words, the sub-nanomolar range.
